The values that follow come from US20220324938A1 (published 2022).

Common to all, as to assay: multimer staining
For experiment [1], the target named is T1, MAGE-A1 peptide on HLA-B*07:02 (human).
T1 peptide: RVRFFFPSL

For experiment [2], the target named is T2, SSX2 peptide on HLA-A*02:01 (human).
T2 peptide: KASEKIFYV

Experiment [3] concerns the target T3, MAGE-A3 peptide on HLA-B*18:01 (human).
T3 peptide: MEVDPIGHLY

Experiment [4] addresses T4, MART1 peptide on HLA-B*18:01 (human).
T4 peptide: EEAAGIGIL

B1: B*07:02/MAGE-A1289-297 TCR (TCR, V domains shown)
Valpha: AQKVTQAQTEISVVEKEDVTLDCVYETRDTTYYLFWYKQPPSGELVFLIRRNSFDEQNEISGRYSWNFQKSTSSFNFTITASQVVDSAVYFCALSESYSGAGSYQLTFGKGTKLSVIP
Vbeta: DTGVSQNPRHKITKRGQNVTFRCDPISEHNRLYWYRQTLGQGPEFLTYFQNEAQLEKSRLLSDRFSAERPKGSFSTLEIQRTEQGDSAMYLCASSLASGSNQPQHFGDGTRLSIL
On to B1, for which, in experiment [1], the binding result was “recognises”.

B2: A*02:01/SSX241-49 TCR (TCR, V domains shown)
Valpha: KQEVTQIPAALSVPEGENLVLNCSFTDSAIYNLQWFRQDPGKGLTSLLLIQSSQREQTSGRLNASLDKSSGRSTLYIAASQPGDSATYLCAVEPMEYGNKLVFGAGTILRVKS
Vbeta: DGGITQSPKYLFRKEGQNVTLSCEQNLNHDAMYWYRQDPGQGLRLIYYSQIVNDFQKGDIAEGYSVSREKKESFPLTVTSAQKNPTAFYLCASSALFSGANVLTFGAGSRLTVL
Regarding B2, the binding result in experiment [2] is listed as “recognises”.

B3: B*18:01/MAGE-A3167-176 TCR (TCR, V domains shown)
Valpha: AQKVTQAQTEISVVEKEDVTLDCVYETRDTTYYLFWYKQPPSGELVFLIRRNSFDEQNEISGRYSWNFQKSTSSFNFTITASQVVDSAVYFCALEVRSSASKIIFGSGTRLSIRP
Vbeta: GAVVSQHPSWVICKSGTSVKIECRSLDFQATTMFWYRQFPKQSLMLMATSNEGSKATYEQGVEKDKFLINHASLTLSTLTVTSAHPEDSSFYICSANPRTTLYEQYFGPGTRLTVT
In the case of B3, the binding result in experiment [3] is listed as “recognises”.

B4: B*18:01/MART125-33 TCR (TCR, V domains shown)
Valpha: GQNIDQPTEMTATEGAIVQINCTYQTSGFNGLFWYQQHAGEAPTFLSYNVLDGLEEKGRFSSFLSRSKGYSYLLLKELQMKDSASYLCAVYGGATNKLIFGTGTLLAVQP
Vbeta: NAGVMQNPRHLVRRRGQEARLRCSPMKGHSHVYWYRQLPEEGLKFMVYLQKENIIDESGMPKERFSAEFPKEGPSILRIQQVVRGDSAAYFCASSPHAGGVDEKLFFGSGTQLSVL
With B4, the binding result in experiment [4] is listed as “recognises”.
